Assay results taken from PMC5109244.

Target: T1, short mouse DNGR-1 ECD (extracellular domain of the short isoform of mouse DNGR-1) (mouse), Q8BRU4
T1 chain: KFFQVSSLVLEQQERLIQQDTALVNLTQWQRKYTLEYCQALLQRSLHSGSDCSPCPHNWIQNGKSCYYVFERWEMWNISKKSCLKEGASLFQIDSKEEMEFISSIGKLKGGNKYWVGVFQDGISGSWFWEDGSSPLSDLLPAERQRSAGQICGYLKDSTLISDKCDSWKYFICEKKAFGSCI
Assay: non-reducing SDS-PAGE and Western blot; supernatants of 293F cells with FLAG-tagged ECD proteins, Laemmli buffer without reducing agent, HRP-conjugated anti-FLAG detection
Details: remark: other sources report otherwise

B1: short mouse DNGR-1 ECD (extracellular domain of the short isoform of mouse DNGR-1), Q8BRU4 57-238 (domain or fragment)
chain: KFFQVSSLVLEQQERLIQQDTALVNLTQWQRKYTLEYCQALLQRSLHSGSDCSPCPHNWIQNGKSCYYVFERWEMWNISKKSCLKEGASLFQIDSKEEMEFISSIGKLKGGNKYWVGVFQDGISGSWFWEDGSSPLSDLLPAERQRSAGQICGYLKDSTLISDKCDSWKYFICEKKAFGSCI
modifications: here or on the partner: glycosylated (mobility augmented by PNGase F); glycosylated (mobility augmented by PNGase F)
stoichiometry N: 2
